Our source for the stoichiometry N values is publication PMC6690855.

The target in the assay is Caut-bCAstrepC (C-terminal STREPII-tagged β-class carbonic anhydrase of Clostridium autoethanogenum) (Clostridium autoethanogenum). As to the kind of experiment: AUC; sedimentation velocity, 50,000 rpm, 2-fold protein dilution series starting at 0.7 mg/ml, absorbance at 280 nm and interference optics; SEDFIT c(s) and non-interacting discrete species (NIDS) models.

Regarding “Caut-bCAstrepC (C-terminal STREPII-tagged β-class carbonic anhydrase of Clostridium autoethanogenum) (enzyme)”, the stoichiometry N (usually the number of molecules, sites or subunits per partner or assembly) amounted to 2.
